From the supplement of paper PMC9112550, “Optimization of the antimicrobial peptide Bac7 by deep mutational scanning” (BMC Biology, 2022) come the findings set out here.

The series relates to Escherichia coli TOP10. The series is described as follows: shrunken log2 fold change of peptide-encoding DNA abundance (4.5 h post-induction vs induction); higher = less antimicrobial activity (less host growth inhibition). The note with it: time post-induction: 4.5 h; library: site-saturation at positions 5, 18, 19, 20.
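Also: peptides expressed intracellularly from a pBAD plasmid library in pooled LB shake-flask culture, induced with 0.3% L-arabinose, DNA abundance read by NGS, three biological replicates, DESeq2 with apeglm shrinkage.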

RRIRMRPPRLPRPRPRPLYYPRP: the “shrunken log2 fold change” value is -0.53.

Take RRIRSRPPRLPRPRPRPHNEPRP: the “shrunken log2 fold change” value is -0.382.

Take RRIRVRPPRLPRPRPRPYKTPRP: the “shrunken log2 fold change” value was 0.0577.

For the sequence RRIRIRPPRLPRPRPRPNQAPRP, the “shrunken log2 fold change” value was -0.0486.

Consider RRIRFRPPRLPRPRPRPLHYPRP, for which the “shrunken log2 fold change” value was -0.299.

For RRIRTRPPRLPRPRPRPGTEPRP, the “shrunken log2 fold change” value amounted to 0.0787.

Turning to RRIRYRPPRLPRPRPRPSLFPRP, the “shrunken log2 fold change” value was -0.657.

RRIRARPPRLPRPRPRPVPFPRP: the “shrunken log2 fold change” value stood at 0.0816.

In the case of RRIRCRPPRLPRPRPRPTLTPRP, the “shrunken log2 fold change” value is -0.14.

In the case of RRIRIRPPRLPRPRPRPGCSPRP, the “shrunken log2 fold change” value was -0.391.

For RRIRLRPPRLPRPRPRPSGSPRP, the “shrunken log2 fold change” value came out at 0.182.

With RRIRCRPPRLPRPRPRPTIAPRP, the “shrunken log2 fold change” value was -0.211.

RRIRHRPPRLPRPRPRPMTDPRP: the “shrunken log2 fold change” value was -0.898.

RRIRTRPPRLPRPRPRPVVWPRP: the “shrunken log2 fold change” value is 0.617.

For RRIRVRPPRLPRPRPRPNPRPRP, the “shrunken log2 fold change” value turned out to be 0.21.

Take RRIRNRPPRLPRPRPRPTMIPRP: the “shrunken log2 fold change” value was -0.387.

For RRIRSRPPRLPRPRPRPGYQPRP, the “shrunken log2 fold change” value was -0.147.

For RRIRDRPPRLPRPRPRPAYKPRP, the “shrunken log2 fold change” value was -0.456.

Regarding RRIRWRPPRLPRPRPRPPCEPRP, the “shrunken log2 fold change” value stood at 0.379.

In the case of RRIRHRPPRLPRPRPRPPMQPRP, the “shrunken log2 fold change” value is 0.268.

For the sequence RRIRIRPPRLPRPRPRPCAEPRP, the “shrunken log2 fold change” value is -0.358.

As for RRIRHRPPRLPRPRPRPSETPRP, the “shrunken log2 fold change” value was -0.0359.

As to RRIRRRPPRLPRPRPRPMRSPRP, the “shrunken log2 fold change” value is 0.579.

As to RRIRVRPPRLPRPRPRPCWDPRP, the “shrunken log2 fold change” value is -0.154.

Turning to RRIRGRPPRLPRPRPRPDGCPRP, the “shrunken log2 fold change” value was 0.792.

As for RRIRGRPPRLPRPRPRPAIIPRP, the “shrunken log2 fold change” value stood at 0.134.

Consider RRIRMRPPRLPRPRPRPDAHPRP, for which the “shrunken log2 fold change” value came to 0.0846.

Consider RRIRQRPPRLPRPRPRPPSWPRP, for which the “shrunken log2 fold change” value came to 0.581.

Regarding RRIRVRPPRLPRPRPRPYSAPRP, the “shrunken log2 fold change” value was -0.805.

As for RRIRIRPPRLPRPRPRPIWYPRP, the “shrunken log2 fold change” value was -1.64.

Regarding RRIRYRPPRLPRPRPRPVDCPRP, the “shrunken log2 fold change” value was -0.103.

Regarding RRIRSRPPRLPRPRPRPMENPRP, the “shrunken log2 fold change” value came to 0.0424.

In the case of RRIRMRPPRLPRPRPRPVRRPRP, the “shrunken log2 fold change” value came out at 0.447.

For RRIRGRPPRLPRPRPRPEPRPRP, the “shrunken log2 fold change” value is 1.35.

RRIRYRPPRLPRPRPRPVEHPRP: the “shrunken log2 fold change” value is -0.0137.

With RRIRWRPPRLPRPRPRPEPLPRP, the “shrunken log2 fold change” value worked out at 0.417.

For the sequence RRIRIRPPRLPRPRPRPFSMPRP, the “shrunken log2 fold change” value was -0.0858.

In the case of RRIRERPPRLPRPRPRPGWWPRP, the “shrunken log2 fold change” value is -0.0125.

With RRIRCRPPRLPRPRPRPSKDPRP, the “shrunken log2 fold change” value is -0.361.

With RRIRLRPPRLPRPRPRPRQEPRP, the “shrunken log2 fold change” value was determined as 0.0259.

As for RRIRFRPPRLPRPRPRPYWPPRP, the “shrunken log2 fold change” value is -0.336.

For the sequence RRIRFRPPRLPRPRPRPPAVPRP, the “shrunken log2 fold change” value came out at 0.713.

As to RRIRFRPPRLPRPRPRPIITPRP, the “shrunken log2 fold change” value was -0.5.

Regarding RRIRYRPPRLPRPRPRPLWVPRP, the “shrunken log2 fold change” value is -0.0829.

As for RRIRERPPRLPRPRPRPLRSPRP, the “shrunken log2 fold change” value was 0.474.

On to RRIRPRPPRLPRPRPRPYNAPRP, for which the “shrunken log2 fold change” value was -0.608.

Turning to RRIRMRPPRLPRPRPRPKQNPRP, the “shrunken log2 fold change” value came out at 1.16.

For RRIRHRPPRLPRPRPRPHDQPRP, the “shrunken log2 fold change” value is -0.104.

As to RRIRVRPPRLPRPRPRPMMGPRP, the “shrunken log2 fold change” value was found to be 0.00748.

Take RRIRARPPRLPRPRPRPRWLPRP: the “shrunken log2 fold change” value was 0.68.

In the case of RRIRTRPPRLPRPRPRPMMIPRP, the “shrunken log2 fold change” value is 0.000458.

For the sequence RRIRVRPPRLPRPRPRPCPEPRP, the “shrunken log2 fold change” value is -0.189.

Regarding RRIRDRPPRLPRPRPRPVDPPRP, the “shrunken log2 fold change” value came to 0.0517.

As to RRIRKRPPRLPRPRPRPCWMPRP, the “shrunken log2 fold change” value was 0.446.

With RRIRRRPPRLPRPRPRPWDNPRP, the “shrunken log2 fold change” value is 0.0234.

Consider RRIRLRPPRLPRPRPRPRCMPRP, for which the “shrunken log2 fold change” value is -0.0665.

As for RRIRDRPPRLPRPRPRPAVPPRP, the “shrunken log2 fold change” value was -0.00426.

For the sequence RRIRSRPPRLPRPRPRPQWVPRP, the “shrunken log2 fold change” value turned out to be 0.0964.

For RRIRQRPPRLPRPRPRPDFLPRP, the “shrunken log2 fold change” value is -0.338.

On to RRIRGRPPRLPRPRPRPGTHPRP, for which the “shrunken log2 fold change” value came out at 0.508.

With RRIRNRPPRLPRPRPRPTQKPRP, the “shrunken log2 fold change” value amounted to 0.241.

For RRIRRRPPRLPRPRPRPSMNPRP, the “shrunken log2 fold change” value was -0.467.
